Drawing on paper PMC2914828, this text covers stoichiometry N for 1 substance.

One may read the stoichiometry N as a count of units in the complex or per binding partner.

The target in this assay is alternative complex III (ACIII) subunit s5 (Chloroflexus aurantiacus strain J-10-fl (endogenous)). The assay is described as follows: cross-linking.

As for “alternative complex III (ACIII) subunit s5 (natural protein)”, the stoichiometry N was found to be 2.
